According to article PMC6265302, “Widespread bacterial lysine degradation proceeding via glutarate and L-2-hydroxyglutarate” (Nature Communications, 2018):

Columns and labels:
Details in all cases: Filter binding: 50 mM Tris-HCl, 100 mM KCl, 50 mM NaCl, 5 mM MgCl2, pH 7.6, 15 min, footprint: 50 mM MOPS, 100 mM NaCl, 20 mM KCl, 2.5 mM MgCl2, 0.1 mM DTT
[1] = target: T1, CsiR (Escherichia coli BW25113 (K-12)) (UniProt P37338); assay: SPR
T1 sequence: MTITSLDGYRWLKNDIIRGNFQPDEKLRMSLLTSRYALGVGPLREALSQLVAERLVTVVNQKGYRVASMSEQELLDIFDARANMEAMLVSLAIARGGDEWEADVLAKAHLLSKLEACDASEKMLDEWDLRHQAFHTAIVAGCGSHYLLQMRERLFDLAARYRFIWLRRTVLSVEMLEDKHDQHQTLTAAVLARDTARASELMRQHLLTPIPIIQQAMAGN

[2] = target: T1, CsiR (Escherichia coli BW25113 (K-12)); assay: hydroxyl radical footprinting
[3] = system: CsiR (Escherichia coli BW25113 (K-12)); assay: SPR

CTTTTGTGCGCATTTTTCAGAAATGTAGATATTTTTAGATTATGGCTACGAAATGAG (double strand) [csiD 5'-UTR/promoter PCR product MS177/MS178]
Kd [1]: 10 nM

TATGAGATGTAGGGTGACATGGCGATGCTCATTTCGTAGCCATAATCTAAAAATATCTACATTTCTGAAAAATGCGCACAAAAGCGACATATTGTTTTCTTATTGTGATCAAAAGCAACA (double strand) [csiD promoter PCR product MS170/MS171]
binding [2]: binds

csiD 5'-UTR/promoter PCR product MS177/MS178
Kd [3]: 10 nM
